Earlier results, collected in article PMC8869670.

Biological target: Thioredoxin (Homo sapiens) (UniProt P10599)
Sequence (P10599 2-105): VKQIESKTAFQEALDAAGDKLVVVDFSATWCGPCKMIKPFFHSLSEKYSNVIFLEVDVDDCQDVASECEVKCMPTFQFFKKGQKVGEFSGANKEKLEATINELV

Kd: 900 nM
Substance: p53 (from UniProt P04637)
